43 variants from the Human Domainome abundance scans (Beltran et al. 2025) can be followed below.

± gives the uncertainty stated by the source.

The chains are these.
B1: Ras GTPase-activating protein 1, residues 281 to 341; numbered along this chain, P20936 (parent)
chain: RRRVRAILPYTKVPDTDEISFLKGDMFIVHNELEDGWMWVTNLRTDEQGLIVEDLVEEVGR

In the data set the parent is B1. The experiment in a line: abundance fitness (aPCA) (normalised: wild type 0, dead -1); higher = more abundant; growth selection in yeast, the domain comes from the species named. The settings on record: Homo sapiens.
In the case of RRRVRAILPYTKVPDTDEISFLKGDMFIVHNELEDGWMIVTNLRTDEQGLIVEDLVEEVGR, the abundance fitness was -0.284 ± 0.021.
As for RHRVRAILPYTKVPDTDEISFLKGDMFIVHNELEDGWMWVTNLRTDEQGLIVEDLVEEVGR, the abundance fitness is -0.183 ± 0.038.
As for RRRVRAILPYQKVPDTDEISFLKGDMFIVHNELEDGWMWVTNLRTDEQGLIVEDLVEEVGR, the abundance fitness was -0.097 ± 0.084.
RRRVRAILPYTKVPDTDEISFLCGDMFIVHNELEDGWMWVTNLRTDEQGLIVEDLVEEVGR: the abundance fitness was -0.16 ± 0.023.
RRRVRAILPYTKVPDRDEISFLKGDMFIVHNELEDGWMWVTNLRTDEQGLIVEDLVEEVGR: the abundance fitness was -0.456 ± 0.029.
On to RRRVMAILPYTKVPDTDEISFLKGDMFIVHNELEDGWMWVTNLRTDEQGLIVEDLVEEVGR, for which the abundance fitness was -0.025 ± 0.055.
With RRRVAAILPYTKVPDTDEISFLKGDMFIVHNELEDGWMWVTNLRTDEQGLIVEDLVEEVGR, the abundance fitness was -0.354 ± 0.037.
RRRVRAILPYTKVPDTDEISFLKGDMFIVHNELEDGWMWVTNLRTDEQGLIVEDLVWEVGR: the abundance fitness is -0.921 ± 0.17.
As to RRRVRAILPYTKVPDTDEISFLKGDMFIVANELEDGWMWVTNLRTDEQGLIVEDLVEEVGR, the abundance fitness was -0.4 ± 0.033.
On to RRRVRAILPYTKVPDTDEISFLKGDMFIVHNELEDGWMWVTNLRTDEQSLIVEDLVEEVGR, for which the abundance fitness is -0.979 ± 0.051.
Take RRRVRAILPYTKVPDTDEISFLKGDMFIHHNELEDGWMWVTNLRTDEQGLIVEDLVEEVGR: the abundance fitness was -0.881 ± 0.062.
For the variant RRRVRAILPYTKVPDTDEISFLKGDMFIEHNELEDGWMWVTNLRTDEQGLIVEDLVEEVGR, the abundance fitness was -0.873 ± 0.11.
Then RRRVRAILPYTKVPDTIEISFLKGDMFIVHNELEDGWMWVTNLRTDEQGLIVEDLVEEVGR, with -0.275 ± 0.033; and RRRVRAILPYTKVPDTNEISFLKGDMFIVHNELEDGWMWVTNLRTDEQGLIVEDLVEEVGR, with -0.037 ± 0.032.
On to RRRVRAILPYTKVPDTYEISFLKGDMFIVHNELEDGWMWVTNLRTDEQGLIVEDLVEEVGR, for which the abundance fitness was -0.084 ± 0.026.
Then RRRVRAILPYTKVPDTDEISFLKGDMFIVHNELEDGKMWVTNLRTDEQGLIVEDLVEEVGR, with 0.121 ± 0.037.
In the case of RRRVRAILPYTKVPDTDEISFLKGDMFIVHNELEDGRMWVTNLRTDEQGLIVEDLVEEVGR, the abundance fitness is 0.088 ± 0.021.
In the case of RRRVRAILPYTKVPDTDEISFLKGDMFIVHNELEDGGMWVTNLRTDEQGLIVEDLVEEVGR, the abundance fitness is -0.049 ± 0.02.
Turning to RRRVRAIQPYTKVPDTDEISFLKGDMFIVHNELEDGWMWVTNLRTDEQGLIVEDLVEEVGR, the abundance fitness is -0.052 ± 0.058.
Take RRRVRAINPYTKVPDTDEISFLKGDMFIVHNELEDGWMWVTNLRTDEQGLIVEDLVEEVGR: the abundance fitness was -0.102 ± 0.028.
Then RRRVRAILPYTFVPDTDEISFLKGDMFIVHNELEDGWMWVTNLRTDEQGLIVEDLVEEVGR, with -0.985 ± 0.052.
Then RRRVRAILPYTGVPDTDEISFLKGDMFIVHNELEDGWMWVTNLRTDEQGLIVEDLVEEVGR, with 0.023 ± 0.032; and RRRVRAILPYTKVPDTDEISFLKGDMFIVHNELEDGWMWVTNLRTDEQGLIVEDLSEEVGR, with -0.73 ± 0.036; and RRRVRAILPYTKNPDTDEISFLKGDMFIVHNELEDGWMWVTNLRTDEQGLIVEDLVEEVGR, with 0.058 ± 0.031.
For RRRVRAILPYTKVPDTDEISFLKGDMFIVHNELEDGWMWVTNLRTDEQGLIVEDKVEEVGR, the abundance fitness came to 0.027 ± 0.051.
Consider RRRVRAILPYTKVPDTDEISFLKGDMFIVHNELEDGWMWVTNLRTDEQGLIVEDLVEEVGP, for which the abundance fitness is 0.104 ± 0.046.
For RRRVRAILPYTKVPDTDEISFLKGDMFIVHNELEDGWMWVTNLRTDEQGLIVEDLVEEVGI, the abundance fitness is -0.003 ± 0.029.
Then RRRVRAILPYTKVPDTDEISFLKGDMFIVHNELEDGWMWVTNLRTDEQGLIVEDLVEEVGD, with 0.039 ± 0.04.
Regarding RRRVRAILPYTKVPDTDEISFLKGDMFIVHNELEDGWMWVTNLRTDEQGLIVEDLVEEVGF, the abundance fitness came out at 0.021 ± 0.043.
Turning to RRRVRAILPYTKVPDTDEISFLKGDMFIVHNELEDGWMWVTNLRTDEQGLIVDDLVEEVGR, the abundance fitness was -0.045 ± 0.03.
In the case of RRRVRAYLPYTKVPDTDEISFLKGDMFIVHNELEDGWMWVTNLRTDEQGLIVEDLVEEVGR, the abundance fitness was -0.366 ± 0.032.
Consider RRRVRAILPYTKVPDTDEISFLKGDMFIVHFELEDGWMWVTNLRTDEQGLIVEDLVEEVGR, for which the abundance fitness was -0.17 ± 0.029.
Consider RRRVRAILPYTKVPDTDEISFLKGDMFIVHNELEDGWMWVTNLRTDEQGMIVEDLVEEVGR, for which the abundance fitness was determined as 0.004 ± 0.059.
As to RRRVRAILPYTKVPDTDEISFLKGDMFIVHNELEDGWMWVTNLRTDEQGTIVEDLVEEVGR, the abundance fitness was -0.04 ± 0.032.
Take RRCVRAILPYTKVPDTDEISFLKGDMFIVHNELEDGWMWVTNLRTDEQGLIVEDLVEEVGR: the abundance fitness is -0.212 ± 0.029.
Regarding RRGVRAILPYTKVPDTDEISFLKGDMFIVHNELEDGWMWVTNLRTDEQGLIVEDLVEEVGR, the abundance fitness was -0.383 ± 0.028.
For the variant RRRVRAILPYTKVPDTDEISFLKGDMFIVHNELEDNWMWVTNLRTDEQGLIVEDLVEEVGR, the abundance fitness was -0.149 ± 0.028.
Regarding RRRVRAILPYTKVPDTDEISFLKYDMFIVHNELEDGWMWVTNLRTDEQGLIVEDLVEEVGR, the abundance fitness was -0.297 ± 0.033.
Consider RRRVRAILPYTKVPDTDEISFLKGDMFIVHNEFEDGWMWVTNLRTDEQGLIVEDLVEEVGR, for which the abundance fitness was -0.042 ± 0.026.
With RRRVRAILPYTKVPDTDEISFLKGDMFIVHNEAEDGWMWVTNLRTDEQGLIVEDLVEEVGR, the abundance fitness was -0.054 ± 0.031.
With RRRVRAILPYTKVPDTDEISFLKGDMFIVHNESEDGWMWVTNLRTDEQGLIVEDLVEEVGR, the abundance fitness was -0.102 ± 0.025.
Then RRRVRAILPYTKVPDTDEISFLKGDMFIVHNEDEDGWMWVTNLRTDEQGLIVEDLVEEVGR, with -0.182 ± 0.03.
Turning to RRRVRAILPATKVPDTDEISFLKGDMFIVHNELEDGWMWVTNLRTDEQGLIVEDLVEEVGR, the abundance fitness was -0.588 ± 0.088.
